# Laboratory results taken from US20220048967A1 (published 2022).
# Numbering of substitutions follows the chain as printed. Numbered stars: 1 amine (or outer) side, 2 acyl side, 3 side chain; on linkers, the order of the positions; unused ones are H or OH. Square brackets hold non-standard residues; d marks the D form. Side chains are listed from the residue outwards. Ends that are not written are not given here. * marks the point of attachment. C20 diacid = O=C(O)CCCCCCCCCCCCCCCCCCC(=O)*; γGlu = O=C(O)[C@H](CCC(=O)[*:2])N[*:1]; AEEA = NCCOCCOCC(=O)O; Aib = CC(C)(N)C(=O)O
# T1: human gastric inhibitory peptide receptor (GIPR) (human, UniProt P48546 22-466)
# T1 sequence (looked up): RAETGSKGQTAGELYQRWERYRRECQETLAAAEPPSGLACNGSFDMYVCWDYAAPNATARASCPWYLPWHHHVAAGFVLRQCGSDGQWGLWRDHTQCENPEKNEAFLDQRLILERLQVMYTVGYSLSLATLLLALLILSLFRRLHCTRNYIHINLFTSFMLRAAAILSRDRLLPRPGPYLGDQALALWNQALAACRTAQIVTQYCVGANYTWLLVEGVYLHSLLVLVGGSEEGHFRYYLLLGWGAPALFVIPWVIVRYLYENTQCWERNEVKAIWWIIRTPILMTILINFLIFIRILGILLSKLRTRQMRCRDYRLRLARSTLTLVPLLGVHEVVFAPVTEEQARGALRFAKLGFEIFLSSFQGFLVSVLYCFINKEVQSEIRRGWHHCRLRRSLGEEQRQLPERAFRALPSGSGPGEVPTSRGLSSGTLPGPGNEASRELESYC
# B1: Example 264 (peptide)
# peptide: YXEGTXTSDXSIXLDXKAQXEFIXXLIEGGPSSG
# modifications: Aib2, αMeF(2F)6, 4Pal10, αMeF13 (so in the source), Orn16, (2-[2-(2-Amino-ethoxy)-ethoxy]-acetyl)2-(γ-Glu)-CO-(CH2)16-CO2H on K17, Aib20, D-Glu24, αMeY25, C-terminal NH2
# B2: Example 258 (peptide)
# peptide: Y[Aib]EGTFTSDYSILLDEK([AEEA-AEEA-γGlu-C20 diacid])AQKAFIEYLIEGGPSSGAPPPS-NH2
# modifications: N-terminus assumed
# SMILES: CC[C@H](C)[C@H](NC(=O)[C@H](CC(C)C)NC(=O)[C@H](Cc1ccc(O)cc1)NC(=O)[C@H](CCC(=O)O)NC(=O)[C@@H](NC(=O)[C@H](Cc1ccccc1)NC(=O)[C@H](C)NC(=O)[C@H](CCCCN)NC(=O)[C@H](CCC(N)=O)NC(=O)[C@H](C)NC(=O)[C@H](CCCCNC(=O)COCCOCCNC(=O)COCCOCCNC(=O)CC[C@H](NC(=O)CCCCCCCCCCCCCCCCCCC(=O)O)C(=O)O)NC(=O)[C@H](CCC(=O)O)NC(=O)[C@H](CC(=O)O)NC(=O)[C@H](CC(C)C)NC(=O)[C@H](CC(C)C)NC(=O)[C@@H](NC(=O)[C@H](CO)NC(=O)[C@H](Cc1ccc(O)cc1)NC(=O)[C@H](CC(=O)O)NC(=O)[C@H](CO)NC(=O)[C@@H](NC(=O)[C@H](Cc1ccccc1)NC(=O)[C@@H](NC(=O)CNC(=O)[C@H](CCC(=O)O)NC(=O)C(C)(C)NC(=O)[C@@H](N)Cc1ccc(O)cc1)[C@@H](C)O)[C@@H](C)O)[C@@H](C)CC)[C@@H](C)CC)C(=O)N[C@@H](CCC(=O)O)C(=O)NCC(=O)NCC(=O)N1CCC[C@H]1C(=O)N[C@@H](CO)C(=O)N[C@@H](CO)C(=O)NCC(=O)N[C@@H](C)C(=O)N1CCC[C@H]1C(=O)N1CCC[C@H]1C(=O)N1CCC[C@H]1C(=O)N[C@@H](CO)C(N)=O
# B3: Example 260 (peptide)
# peptide: Y[Aib]EGTFTSDHSILLDKK([AEEA-AEEA-γGlu-C20 diacid])AQ[Aib]AFIEYLIEGGPSSGAPPPS-NH2
# modifications: N-terminus assumed
# SMILES: CC[C@H](C)[C@H](NC(=O)[C@H](CC(C)C)NC(=O)[C@H](Cc1ccc(O)cc1)NC(=O)[C@H](CCC(=O)O)NC(=O)[C@@H](NC(=O)[C@H](Cc1ccccc1)NC(=O)[C@H](C)NC(=O)C(C)(C)NC(=O)[C@H](CCC(N)=O)NC(=O)[C@H](C)NC(=O)[C@H](CCCCNC(=O)COCCOCCNC(=O)COCCOCCNC(=O)CC[C@H](NC(=O)CCCCCCCCCCCCCCCCCCC(=O)O)C(=O)O)NC(=O)[C@H](CCCCN)NC(=O)[C@H](CC(=O)O)NC(=O)[C@H](CC(C)C)NC(=O)[C@H](CC(C)C)NC(=O)[C@@H](NC(=O)[C@H](CO)NC(=O)[C@H](Cc1c[nH]cn1)NC(=O)[C@H](CC(=O)O)NC(=O)[C@H](CO)NC(=O)[C@@H](NC(=O)[C@H](Cc1ccccc1)NC(=O)[C@@H](NC(=O)CNC(=O)[C@H](CCC(=O)O)NC(=O)C(C)(C)NC(=O)[C@@H](N)Cc1ccc(O)cc1)[C@@H](C)O)[C@@H](C)O)[C@@H](C)CC)[C@@H](C)CC)C(=O)N[C@@H](CCC(=O)O)C(=O)NCC(=O)NCC(=O)N1CCC[C@H]1C(=O)N[C@@H](CO)C(=O)N[C@@H](CO)C(=O)NCC(=O)N[C@@H](C)C(=O)N1CCC[C@H]1C(=O)N1CCC[C@H]1C(=O)N1CCC[C@H]1C(=O)N[C@@H](CO)C(N)=O
# B4: Example 253 (peptide)
# peptide: YXEGTFTSDYSILLDKKAQAAFIEYLIEGGPSSGAPPPS
# modifications: Aib2, (2-[2-(2-Amino-ethoxy)-ethoxy]-acetyl)2-(γ-Glu)-CO-(CH2)18-CO2H on K17, C-terminal NH2
# B5: Example 254 (peptide)
# peptide: B4 peptide with A20Q
# modifications: Aib2, (2-[2-(2-Amino-ethoxy)-ethoxy]-acetyl)2-(γ-Glu)-CO-(CH2)18-CO2H on K17, C-terminal NH2
# B6: Example 255 (peptide)
# peptide: B4 peptide with A20H
# modifications: Aib2, (2-[2-(2-Amino-ethoxy)-ethoxy]-acetyl)2-(γ-Glu)-CO-(CH2)18-CO2H on K17, C-terminal NH2
# B7: Example 257 (peptide)
# peptide: B4 peptide with A20R
# modifications: Aib2, (2-[2-(2-Amino-ethoxy)-ethoxy]-acetyl)2-(γ-Glu)-CO-(CH2)18-CO2H on K17, C-terminal NH2
# B8: Example 261 (peptide)
# peptide: B4 peptide with A20E
# modifications: Aib2, (2-[2-(2-Amino-ethoxy)-ethoxy]-acetyl)2-(γ-Glu)-CO-(CH2)18-CO2H on K17, C-terminal NH2
# B9: Example 262 (peptide)
# peptide: B4 peptide with A20T
# modifications: Aib2, (2-[2-(2-Amino-ethoxy)-ethoxy]-acetyl)2-(γ-Glu)-CO-(CH2)18-CO2H on K17, C-terminal NH2
# B10: Example 263 (peptide)
# peptide: B4 peptide with A20S
# modifications: Aib2, (2-[2-(2-Amino-ethoxy)-ethoxy]-acetyl)2-(γ-Glu)-CO-(CH2)18-CO2H on K17, C-terminal NH2
# B11: Example 256 (peptide)
# peptide: B4 peptide with A20K
# modifications: Aib2, (2-[2-(2-Amino-ethoxy)-ethoxy]-acetyl)2-(γ-Glu)-CO-(CH2)18-CO2H on K17, C-terminal NH2
# B12: Example 265 (peptide)
# peptide: YXEGTXTSDXSIXLDXKAQXEFIXXLIEGG
# modifications: Aib2, αMeF(2F)6, 4Pal10, αMeF13 (so in the source), Orn16, (2-[2-(2-Amino-ethoxy)-ethoxy]-acetyl)2-(γ-Glu)-CO-(CH2)16-CO2H on K17, Aib20, D-Glu24, αMeY25, C-terminal NH2
# B13: Example 259 (peptide)
# peptide: Y[Aib]EGTFTSDYSILLDEK([AEEA-AEEA-γGlu-C20 diacid])AQ[Aib]AFIEYLIEGGPSSGAPPPS-NH2
# modifications: N-terminus assumed
# SMILES: CC[C@H](C)[C@H](NC(=O)[C@H](CC(C)C)NC(=O)[C@H](Cc1ccc(O)cc1)NC(=O)[C@H](CCC(=O)O)NC(=O)[C@@H](NC(=O)[C@H](Cc1ccccc1)NC(=O)[C@H](C)NC(=O)C(C)(C)NC(=O)[C@H](CCC(N)=O)NC(=O)[C@H](C)NC(=O)[C@H](CCCCNC(=O)COCCOCCNC(=O)COCCOCCNC(=O)CC[C@H](NC(=O)CCCCCCCCCCCCCCCCCCC(=O)O)C(=O)O)NC(=O)[C@H](CCC(=O)O)NC(=O)[C@H](CC(=O)O)NC(=O)[C@H](CC(C)C)NC(=O)[C@H](CC(C)C)NC(=O)[C@@H](NC(=O)[C@H](CO)NC(=O)[C@H](Cc1ccc(O)cc1)NC(=O)[C@H](CC(=O)O)NC(=O)[C@H](CO)NC(=O)[C@@H](NC(=O)[C@H](Cc1ccccc1)NC(=O)[C@@H](NC(=O)CNC(=O)[C@H](CCC(=O)O)NC(=O)C(C)(C)NC(=O)[C@@H](N)Cc1ccc(O)cc1)[C@@H](C)O)[C@@H](C)O)[C@@H](C)CC)[C@@H](C)CC)C(=O)N[C@@H](CCC(=O)O)C(=O)NCC(=O)NCC(=O)N1CCC[C@H]1C(=O)N[C@@H](CO)C(=O)N[C@@H](CO)C(=O)NCC(=O)N[C@@H](C)C(=O)N1CCC[C@H]1C(=O)N1CCC[C@H]1C(=O)N1CCC[C@H]1C(=O)N[C@@H](CO)C(N)=O
# B14: Example 247 (peptide)
# peptide: YXEGTXTSDYSIXLDXKAQXEFIXYLIEGGPSSGAPPPS
# modifications: Aib2, αMeF(2F)6, Aib13, Orn16, (2-[2-(2-Amino-ethoxy)-ethoxy]-acetyl)2-(γ-Glu)-CO-(CH2)16-CO2H on K17, Aib20, D-Glu24, C-terminal NH2
# B15: Example 249 (peptide)
# peptide: B14 peptide
# modifications: Aib2, αMeF(2F)6, Nle13, Orn16, (2-[2-(2-Amino-ethoxy)-ethoxy]-acetyl)2-(γ-Glu)-CO-(CH2)16-CO2H on K17, Aib20, D-Glu24, C-terminal NH2
# B16: Example 250 (peptide)
# peptide: B14 peptide
# modifications: Aib2, αMeF(2F)6, Aib13, Orn16, (2-[2-(2-Amino-ethoxy)-ethoxy]-acetyl)2-(γ-Glu)-CO-(CH2)18-CO2H on K17, Aib20, D-Glu24, C-terminal NH2
# B17: Example 248 (peptide)
# peptide: B14 peptide with X13L
# modifications: Aib2, αMeF(2F)6, Orn16, (2-[2-(2-Amino-ethoxy)-ethoxy]-acetyl)2-(γ-Glu)-CO-(CH2)16-CO2H on K17, Aib20, D-Glu24, C-terminal NH2
# B18: Example 359 (peptide)
# peptide: XXEGTFTSDYSIXLDXKAQXEFVEYLIAGGPSSGAPPPS
# modifications: D-Tyr1, Aib2, αMeL13, Orn16, (2-[2-(2-Amino-ethoxy)-ethoxy]-acetyl)2-(γ-Glu)-CO-(CH2)18-CO2H on K17, Aib20, C-terminal NH2
# B19: Example 336 (peptide)
# peptide: B4 peptide with Y1X, F6X, L13X, A20X
# modifications: not fully specified; D-Tyr1, Aib2, αMeF(2F)6, αMeL13, (2-[2-(2-Amino-ethoxy)-ethoxy]-acetyl)2-(γ-Glu)-CO-(CH2)18-CO2H on K17, Aib20, C-terminal NH2
# Target: human GLP-1 receptor (GLP-1R) (human, UniProt P43220 24-463)
# Assay: cell-based or functional assay
Binder,hGLP1R cAMP EC50 ratio,hGLP1R cAMP Rel EC50
B1,3.19,0.0229 nM
B2,0.401,0.174 nM
B3,0.171,0.408 nM
B4,0.638,0.109 nM
B5,1.26,0.0553 nM
B6,1.71,0.0407 nM
B7,0.895,0.0779 nM
B8,0.75,0.0948 nM
B9,0.754,0.0943 nM
B10,0.906,0.0785 nM
B11,1.38,0.0506 nM
B12,3.27,0.0223 nM
B13,0.482,0.145 nM
B14,0.614,0.0491 nM
B15,0.778,0.0446 nM
B16,0.985,0.0306 nM
B17,0.8,0.0428 nM

# Target: T1, human gastric inhibitory peptide …
# Assay: cell-based or functional assay
Binder,hGIPR cAMP EC50 ratio,hGIPR cAMP Rel EC50
B1,8.4,0.0196 nM
B2,0.0616,2.43 nM
B3,0.242,0.617 nM
B4,0.684,0.219 nM
B5,0.695,0.215 nM
B6,1.47,0.102 nM
B7,0.316,0.474 nM
B8,0.936,0.16 nM
B9,1.15,0.13 nM
B10,0.473,0.317 nM
B11,0.233,0.643 nM
B12,7.56,0.0229 nM
B13,0.582,0.257 nM
B18,,0.172 nM
B14,2.58,0.0622 nM
B15,3.84,0.0437 nM
B16,4.27,0.0376 nM
B19,,0.0312 nM
B17,5.08,0.0328 nM
